Source: the DeepSol protein solubility set

Assay: soluble on expression in E. coli; label from the status in PepcDB or PDB records

| Sequence | soluble on expression in E. coli |
| --- | --- |
| MAPLLHQVSNYGYGKCVTVRFCDGKTYDAKDGESRAINRDLNVGAVKIYRDSKDEDQAYVLNYFPYNLELNDNRGKNKGLQGYRVLIWKQYGTINLDVFYDEMKIWCKTNDLGIYTSDGELKYYKSVIARHREEGGISVIGFETAEGATTAAAKKEEDENEEASAKVKEANEEESTNA | soluble |
| MAPQKCFLQIKGMTCASCVSNIERNLQKEAGVLSVLVALMAGKAEIKYDPEVIQPLEIAQFIQDLGFEAAVMEDYAGSDGNIELTITGMTCASCVHNIESKLTRTNGITYASVALATSKALVKFDPEIIGPRDIIKIIEEIGFHASLAQ | soluble |
| MAPQNKPYFTYNNEIIGEATQSNPLGNVVRTTISFKSDDKVSDLISTISKAVQFHKNNSASGENVTINENDFINQLKANGVTVKTVQPSNKNEKAYEAIDKVPSTSFNITLSATGDNNQTATIQIPMVPQGASTPTDTTQNPQINWTKGGQAQSSSLNGQVFQVAVGSNFNPLNFTNSNGENIIVSAQQSKNNTTFASIEATSNPVNTSEAGRYYNVTLTATGNTGKKTTATYTVLITSSQKQTLYGNGESTISTYSIYGNNVLSNSTTFKDGDQVYVSDQTKTVGGVSYSQVSPKSKNDANSSNIWVKTSALVKPAGDTNVKTYPVMVDSRAYDKNGNYLGHMYYAYDNIDIVPTVVTINGKTYYKVANKDEYVRVTNITGNQRTLKHNAYIYWSSYRRTPGTGKMYRGQTVTTYGPQMKFKNGKKYYRIEGCRNNNKRYIKAVNFYLEHHHHHH | soluble |
| MAPRKKVNEMVIRKTANLTDKMRKERTVEEFEEVKTAQSKSYESDTSSAESLRQKRTAPSAIRTVQIQKEIVLPYDGNLVSVYEKSSNTRSLDTISEPGDLEEFKKKAEESKYVGPQIVPMKFVTTDVETPVKAIFVSDFDFCQAMHHPPQSSTQSKKVEFSKRFEVEQKFLEEMVADIEKLIVSSGRMDVELKVVKAREENDSPRAKISLVRKIHAEKVDDNLNNQAGLVGFILPDLEMKDHGIPLKITKNQQVPSGQKMFESFKRLFGY | not soluble |
| MAPRSILITGANRGIGLGLVKQFLKNEGIQLVIATCRNPSKADELNSIADSRLQIFPLEIDCDDSIKKLYENVDTLVGTDGLTVLINNAAICSVYEIEGQISRTYMRQQIETNSVSTAILTQNFIPLLKKASAKNGGEEYSTDRAAIVNISSGAASIGYIDDKQPGIYIAYRMSKSALNSFSKSCSVELAKYHILVTAMCPGWVKTDMGGENGWEEVDDATEKIMKSILKLGAAQHGAFINSSLEVYPN | not soluble |
| MAPRSYWKGYLKLSLVTCPVTLMPATSEAERVRFRTLNGRTGHPVVSRYLDAETGDVVDDDDQVKGYPRSETEHVILEEEELDAVALESARTIDIDCFVPSDEIAWIWYDRPHYLMPADPIGEEAFAVIREAMRATDRSGVARLVLGGRERAVLLMPRGEGIILWTLRYGDEVRPEEAYFGDLAAGKPDPKALTLVKRLIEERTRTWEPGMVEDPVQENLLELIRSKKPKKRSRKAGAKAPKGGDNVVSIMDALRKSIEGKG | not soluble |
| MAPRTYASVLTTPRGPAPLALYCPEAPECPKLEAISNLSFQQITQQAGTSNDQGFEFENTYVEHRINQEIESFVDTHHQEPLRKAAAQFRAVMKQEYPDSTCFITGSYPAGVDIFSSDIDFTVKVPTLEGANPFLKLMQLRKELSCYYTIFSKAYVQKGNIPVLQLMHAETKVSIDVTIDNDTSKRNTQLLAFYSQLDTRFPLLCKAMKAWAASCGVEGASRGRLNSFSLCLMLIHYLQTVQVLLNIQEIFPELNGDIVVEDDNYMKRDLKIEILEKGAFDFNQNTSSLAVLFIGFMKYYSEFNFKWNWISIKHGNVLKKKWSKTRVPKNGMPKDCRFIVVADPLLEIPRNCAGTVRQQNYMERIQLEFREEYERILKRKTIFNLYQCNWSRKLRKEGMERDLQIMILQDELRKLRIANLPTEEEVPWGTVVDFTSPRTFSPTNQHPKVFWCSEQTTENQRRDNLWPELLRTNPYAIFENLI | soluble |
| MAQEKMDLDFEADTSEGATLRRSNSAPLIHVLSDLSQVFEPYPLRTGRTSTAIMSHHSLEEGLDMMNRETTNEREAQAGMQISQSWDESLSLSGSDFDKPEKLYSPKRIDFTPVSPAPSPTRGFGKQCLSPSLQMFVSSSGMPPSPVLNPRHFSRRSQSPVKCIRPSVLGPLKRKGEMEMESQPKRPFQGTTSMLSTNPAQLSDFSSCSDILDGSSISSGLSSDSLATGSAPAESPVACSNSCSPFILMDDLSPK | not soluble |
| MAQGLIEVERKFAPGPDTEERLQELGATLEHRVTFRDTYYDTSELSLMLSDHWLRQREGSGWELKCPGVTGVSGPHNEYVEVTSEAAIVAQLFELLGSGEQKPAGVAAVLGSLKLQEVASFITTRSSWKLALSGAHGQEPQLTIDLDSADFGYAVGEVEAMVHEKAEVPAALEKIITVSSMLGVPAQEEAPAKLMVYLQRFRPLDYQRLLEAASSGEATGDSAS | soluble |
| MAQGNPLTPEEIELLHAGDEENDNTDTLMVIRVPNDGSSATAISIPRDTYVHDENVGNLKINGVYRAYKNRKASELVNSGESDQKHIDELSKEAGRKALISSISDLTGVTVDHYAEVGLLGFVLLTNAVGGVDVCLNNDVYDEFSGADFKAGQQTLRDGQALAFVRQRHGLPRGDLDRIVRQQAFMASLVAKVLSSGTLTNPSKLSDLGEAVSRSVVIDKNWDVMSFANQLQNLAGGNVKFNTIPVTSIDGVGDYGESVVTVDKNQVHQFFDRLLNGNNGEETPTSDSEAPAENPHTSTTIDVLNATSTTGLASQVAGHLSAKHYTIGNIGNALEGMYHESQIVAADPNNEAVKAIAAELGGLPITQRNDLEHHHHHH | soluble |
| MAQQAPDREKALELAMAQIDKNFGKGSVMRLGEEVRQPISVIPTGSISLDVALGIGGLPRGRVIEIYGPESSGKTTVALHAVANAQAAGGIAAFIDAEHALDPEYAKKLGVDTDSLLVSQPDTGEQALEIADMLVRSGALDIIVIDSVAALVPRAEIEGEMGDSHVGLQARLMSQALRKMTGALNNSGTTAIFINALREKIGVMFGSPETTTGGKALKFYASVRLDVRRIETLKDGTDAVGNRTRVKVVKNKVSPPFKQAEFDILYGQGISREGSLIDMGVEHGFIRKSGSWFTYEGEQLGQGKENARKFLLENTDVANEIEKKIKEKLGIGAVVTAEADDVLPAPVDF | soluble |
| MAQQLLMPKATAVWLVDNTALSFDQIAQFCKLHPLEVKAIADGESAQGIKGLDPIATGQLSRDEIARAEGNPNHKLKLSEPKVRVPDSKRKGPRYTPVSKRQDRPNAILWLVRNHPELKDAQISRLVGTTKATIEQIRERTHWNSANLTPMDPVTLGLCSQIDLDLEVERASKGRPLPSAAETGATLESAQETEKLDYGQDREEEKEIDADAVFAKLKSLKSDRKDDEEDDY | not soluble |
| MAQSKESPDEAKQDEIIFNIGDTINDYEIVSKIDEGGFGQVFKVTKDHKTFYAMKLESNFQVGGSAIKLEINVLSQLPKNTVFPELICGGKRPRYHFLVLELLGDNLKALKAQSPNPSVFSDGTWSRIGIQCLYAMKMMHDSGFVHRDIKPSNFAIGYSTASESRSRRVLLFDFGLARKFVKKEKNLAPIVTKKESKISKSKTLPSKGPSTKSKDLKPGRSKPILNRKAEQMKIKKNFNMLIPPKSIDQSQRTAEEKVDDEEFTFRRARPHTDFRGTFQYASPNAHLQLELGRHDDIWSLMYMVAEFFVELPWTSNEEIALEELKNQSSILRLFSDGKNIVSSWIHDRIFSDKNPSRLTPEMRGQLDEIDKNLKSCNYYSSPKYDIVYQFFKDSMTKAKVTWTTPYDWETIGKSSEDFSKKSNGKRAVWENPGAFFKKGRWDALPLPLQSPHISIRKSSSKHPKPSAKGSKKAVQARIQNFSKEDSVEADEAPTPMLKSTKKDGMGGQKGGLKGSIE | not soluble |
| MARAVHRSGLVALGIATALMASCAFAAKDVVVAVGSNFTTLDPYDANDTLSQAVAKSFYQGLFGLDKEMKLKNVLAESYTVSDDGITYTVKLREGIKFQDGTDFNAAAVKANLDRASDPANHLKRYNLYKNIAKTEAIDPTTVKITLKQPFSAFINILAHPATAMISPAALEKYGKEIGFYPVGTGPYELDTWNQTDFVKVKKFAGYWQPGLPKLDSITWRPVADNNTRAAMLQTGEAQFAFPIPYEQATLLEKNKNIELMASPSIMQRYISMNVTQKPFDNPKVREALNYAINRPALVKVAFAGYATPATGVVPPSIAYAQSYKPWPYDPVKARELLKEAGYPNGFSTTLWSSHNHSTAQKVLQFTQQQLAQVGIKAQVTAMDAGQRAAEVEGKGQKESGVRMFYTGWSASTGEADWALSPLFASQNWPPTLFNTAFYSNKQVDDFLAQALKTNDPAEKTRLYKAAQDIIWQESPWIPLVVEKLVSAHSKNLTGFWIMPDTGFSFEDADLQ | soluble |
| MAREFKRSDRVAQEIQKEIAVILQREVKDPRIGMVTVSDVEVSSDLSYAKIFVTFLFDHDEMAIEQGMKGLEKASPYIRSLLGKAMRLRIVPEIRFIYDQSLVEGMRMSNLVTNVVREDEKKHVEESNLEHHHHHH | soluble |
| MAREGCLALNVECRGRRVKFEARMETLPNGRQILVDRVVFPDSVAVLPLVEKDGEWHVVLVRQFRPSIGKWTLEAPAGTLKEGETPEAAAARELEEEAGLKAKALVRVGGGHVSPGYSTEYIHLFLAYSLEKGEMSPEEHEVIEGVVEMRLSEALESIESGVIEDLKTIALVMAAASRVHQLEAGGGV | soluble |
| MARFSGKSVIITGSSNGIGRSAAVIFAKEGAQVTITGRNEDRLEETKQQILKAGVPAEKINAVVADVTEASGQDDIINTTLAKFGKIDILVNNAGANLADGTANTDQPVELYQKTFKLNFQAVIEMTQKTKEHLIKTKGEIVNVSSIVAGPQAHSGYPYYACAKAALDQYTRCTAIDLIQHGVRVNSVSPGAVATGFMGAMGLPETASDKLYSFIGSRKECIPVGHCGKPEEIANIIVFLADRNLSSYIIGQSIVADGGSTLVMGMQTHDLMSVLSQ | soluble |
| MARFVVLVIDSFGVGAMKDVTLVRPQDAGANTCGHILSQLPHLQLPTLETLGLINALGYAPGDMQPSDSATWGVAELQHEGGDTFMGHQEILGTRPLPPLRMPFRDVIDRVEQALVSAGWQVERRGDDLQFLWVNQAVAIGDNLEADLGQVYNITANLSVISFDDAIKIGRIVREQVQVGRVITFGGLLTDSQRILDAAESKEGRFIGINAPRSGAYDNGFQVVHMGYGVDEKVQVPQKLYEAGVPTVLVGKVADIVNNPYGVSWQNLVDSQRIMDITLNEFNTHPTAFICTNIQETDLAGHAEDVARYAERLQVVDRNLARLVEAMQPDDCLVVMADHGNDPTIGHSHHTREVVPVLVYQQGMIATQLGVRTTLSDVGATVCEFFRAPPPQNGRSFLSSLRFAGDTLGKWYYLNSNGAMVTGSQTIDGKVYNFASSGEWI | not soluble |
| MARHFGMALAPWDVMGGGRFQSKKAMEERRKNGECIRSFVGASEQTDAEIKISEALAKVAEEHGTESVTAIAIAYVRSKAKNVFPSVEGGKIEDLKENIKALSIDLTPDNIKYLENVVPFDIGFPNTFIVLNSLTQKYGTNNV | soluble |
| MARHHHHHHMPEGKIIKALSGFYYVLDESEDSDKVIQCRGRGIFRKNKITPLVGDYVVYQAENDKEGYLMEIKERTNELIRPPICNVDQAVLVFSAVQPSFSTALLDRFLVLVEANDIQPIICITKMDLIEDQDTEDTIQAYAEDYRNIGYDVYLTSSKDQDSLADIIPHFQDKTTVFAGQSGVGKSSLLNAISPELGLRTNEISEHLGRGKHTTRHVELIHTSGGLVADTPGFSSLEFTDIEEEELGYTFPDIREKSSSCKFRGCLHLKEPKCAVKQAVEDGELKQYRYDHYVEFMTEIKDRKPRY | soluble |
| MARILAIDDEDGILYIIKSALEKEGHEVTAVSNPLTIPKEKFCHYDLILLDVMMPEIDGFTLCKEIRDFVDSPIVFLTAKTMEKDLITGLSLGGDDYITKPFGIGELRARVSAHVRREHREKQNAFFLSGLTFHLSCKEIWYDDTSIAFTKSEYGICEYLALNHGQVFSREKIYENVFGYEGESDNQVIVEHIKNIRHKLSKYGMNPIETVWGIGYKWRK | not soluble |
